Test system: Lenti-X 293T cells
Assay: YFP fluorescence quenching anion reporter plate reader assay of engineered receptors stimulated with acetylcholine or a non-native ligand
Format: cell-based
Details: for percent quench of YFP fluorescence, 10 uM ach: acetylcholine 10 uM; for percent quench of YFP fluorescence, 100 uM ach: acetylcholine 100 uM; for percent quench of YFP fluorescence, 1 mM ach: acetylcholine 1 mM; for percent quench of YFP fluorescence, 3 mM ach: acetylcholine 3 mM
Outline: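 Lenti-X 293T cells carrying a YFP anion reporter were transiently transfected with channel DNA and assayed the next day in HEPES-buffered ECS at pH 7.2. Ligand (acetylcholine or non-native ligand) was added in NaI-substituted ECS. Percent quench was the mean of the last 10 s relative to the 15 s pre-addition baseline.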

B1: CODA75: non-responding chimeric engineered receptor used as the negative control (protein)
chain: MRCSPGGVWLALAASLLHVSLQGEFQRKLYKELVKNYNPLERPVANDSQPLTVYFSLSLLQIMDVDEKNQVLTTNIWLQMSWTDHYLQWNVSEYPGVKTVRFPDGQIWKPDILLYNSADERFDATFHTNVLVNSSGHCQYLPPGIFKSSCYIDVRWFPFDVQHCKLKFGSWSYGGWSLDLQMQEADISGYIPNGEWDLVGIPGKRSERFYECCKEPYPDVTFTVTMRRRTGYYLIQMYIPSLLIVILSWISFWINMDAAPARVGLGITTVLTMTTQSSGSEIMPATSDSVPLIAQAIDIWMAVCLLFVFSALLEYAAVNFVSRQHKELLRFRRKRRHHKSPMLNLFQEDEAGEGRFNFSAYGMGPACLQAKDGISVKGANNSNTTNPPPAPSKSPEEMRKLFIQRAKKIDKISRIGFPMAFLIFNMFYWIIYKIVRREDVHNQ
modifications: synthetic sequence of chimeric LGIC
notes: non-responding chimeric engineered receptor used as the negative control
1 nM CNL001, first column
  YFP fluorescence quenching using CNL001: −8.496%
1 nM CNL001, second column
  YFP fluorescence quenching using CNL001: −2.266%
1 nM brd
  YFP fluorescence quenching using TC-5619/Bradanicline: −13.39%
3 nM brd
  YFP fluorescence quenching using TC-5619/Bradanicline: −15.78%
3 nM var, first column
  YFP fluorescence quenching using Varenicline: 4.161
3 nM var, second column
  YFP fluorescence quenching using Varenicline: −6.216
10 nM CNL001, first column
  YFP fluorescence quenching using CNL001: 1.816%
10 nM CNL001, second column
  YFP fluorescence quenching using CNL001: −4.649%
10 nM brd
  YFP fluorescence quenching using TC-5619/Bradanicline: −13.47%
30 nM brd
  YFP fluorescence quenching using TC-5619/Bradanicline: −16.41%
30 nM fac
  YFP fluorescence quenching using Facinicline: −11.68
30 nM var, first column
  YFP fluorescence quenching using Varenicline: −5.173
30 nM var, second column
  YFP fluorescence quenching using Varenicline: −6.593
50 nM CNL001, first column
  YFP fluorescence quenching using CNL001: −5.922%
50 nM CNL001, second column
  YFP fluorescence quenching using CNL001: −5.597%
50 nM abt
  YFP fluorescence quenching using ABT-126: −17.07%
100 nM CNL001, first column
  YFP fluorescence quenching using CNL001: −8.159%
100 nM CNL001, second column
  YFP fluorescence quenching using CNL001: −5.058%
100 nM CNL002
  YFP fluorescence quenching using CNL002: −7.94%
100 nM abt
  YFP fluorescence quenching using ABT-126: −16.76%
100 nM azd0328
  YFP fluorescence quenching using AZD-0328: −8.83%
100 nM fac
  YFP fluorescence quenching using Facinicline: 4.35
300 nM abt
  YFP fluorescence quenching using ABT-126: −16.76%
300 nM azd0328
  YFP fluorescence quenching using AZD-0328: −11.15%
300 nM brd
  YFP fluorescence quenching using TC-5619/Bradanicline: −17.56%
300 nM fac
  YFP fluorescence quenching using Facinicline: −10.55
300 nM var, first column
  YFP fluorescence quenching using Varenicline: −5.733
300 nM var, second column
  YFP fluorescence quenching using Varenicline: −7.312
500 nM abt
  YFP fluorescence quenching using ABT-126: −14.68%
500 nM var, first column
  YFP fluorescence quenching using Varenicline: −10.35
500 nM var, second column
  YFP fluorescence quenching using Varenicline: −7.586
1 uM CNL001, first column
  YFP fluorescence quenching using CNL001: −4.272%
1 uM CNL001, second column
  YFP fluorescence quenching using CNL001: −1.281%
1 uM CNL002
  YFP fluorescence quenching using CNL002: −9.81%
1 uM abt
  YFP fluorescence quenching using ABT-126: −16%
1 uM tc6987
  YFP fluorescence quenching using TC-6987: −11.79
1 uM var, first column
  YFP fluorescence quenching using Varenicline: −5.637
1 uM var, second column
  YFP fluorescence quenching using Varenicline: −3.757
3 uM abt
  YFP fluorescence quenching using ABT-126: −14.11%
10 uM abt
  YFP fluorescence quenching using ABT-126: −13.98%
10 uM tc6987
  YFP fluorescence quenching using TC-6987: −14.31
30 uM CNL002
  YFP fluorescence quenching using CNL002: −15.27%
30 uM abt
  YFP fluorescence quenching using ABT-126: −21.05%
30 uM azd0328
  YFP fluorescence quenching using AZD-0328: −11.92%
30 uM fac
  YFP fluorescence quenching using Facinicline: −5.25
50 uM abt
  YFP fluorescence quenching using ABT-126: −21.35%
100 uM abt
  YFP fluorescence quenching using ABT-126: −24.12%
500 uM tc6987
  YFP fluorescence quenching using TC-6987: −19.65
  percent quench of YFP fluorescence, 10 uM ach: −12.88%
  percent quench of YFP fluorescence, 100 uM ach: −14.46%
  percent quench of YFP fluorescence, 1 mM ach: −16.46%
  percent quench of YFP fluorescence, 3 mM ach: −12.38%
Acetylcholine 30 uM
  percent quench of YFP fluorescence, 30 uM ach: −18.67%
Acetylcholine 50 uM
  percent quench of YFP fluorescence, 50 uM ach: −0.29%
Acetylcholine 300 uM
  percent quench of YFP fluorescence, 300 uM ach: −16.31%
Acetylcholine 500 uM
  percent quench of YFP fluorescence, 500 uM ach: −17.41%
Acetylcholine 5 mM
  percent quench of YFP fluorescence, 5 mM ach: −20.88%
Acetylcholine 10 mM
  percent quench of YFP fluorescence, 10 mM ach: −8.69%

B2: CODA217: engineered chimeric LGIC receptor, W77F in SEQ ID NO: 33 (protein)
chain: MRCSPGGVWLALAASLLHVSLQGEFQRKLYKELVKNYNPLERPVANDSQPLTVYFSLSLLQIMDVDEKNQVLTTNIFLQMSWTDHYLQWNVSEYPGVKTVRFPDGQIWKPDILLYNSADERFDATFHTNVLVNSSGHCQYLPPGIFKSSCPMDLKNFPMDVQTCKLKFGSWSYGGWSLDLQMQEADISGYIPNGEWDLVGIPGKRSERFYECCKEPYPDVTFTVTMRRRMGYYLIQMYIPSLLIVILSWISFWINMDAAPARVGLGITTVLTMTTQSSGSRASLPKVSYVKAIDIWMAVCLLFVFSALLEYAAVNFVSRQHKELLRFRRKRRHHKSPMLNLFQEDEAGEGRFNFSAYGMGPACLQAKDGISVKGANNSNTTNPPPAPSKSPEEMRKLFIQRAKKIDKISRIGFPMAFLIFNMFYWIIYKIVRREDVHNQ
modifications: synthetic sequence of chimeric LGIC
1 nM CNL001, first column
  YFP fluorescence quenching using CNL001: −22.273%
1 nM CNL001, second column
  YFP fluorescence quenching using CNL001: −19.415%
3 nM brd
  YFP fluorescence quenching using TC-5619/Bradanicline: −12.1%
3 nM var, first column
  YFP fluorescence quenching using Varenicline: 5.662
3 nM var, second column
  YFP fluorescence quenching using Varenicline: 7.57
10 nM CNL001, first column
  YFP fluorescence quenching using CNL001: −9.563%
10 nM CNL001, second column
  YFP fluorescence quenching using CNL001: 6.398%
30 nM brd
  YFP fluorescence quenching using TC-5619/Bradanicline: −14.72%
30 nM fac
  YFP fluorescence quenching using Facinicline: −10.14
30 nM var, first column
  YFP fluorescence quenching using Varenicline: 13.968
30 nM var, second column
  YFP fluorescence quenching using Varenicline: 19.079
50 nM CNL001, first column
  YFP fluorescence quenching using CNL001: 61.938%
50 nM CNL001, second column
  YFP fluorescence quenching using CNL001: 66.837%
50 nM abt
  YFP fluorescence quenching using ABT-126: 37.81%
100 nM CNL001, first column
  YFP fluorescence quenching using CNL001: 79.791%
100 nM CNL001, second column
  YFP fluorescence quenching using CNL001: 80.908%
100 nM CNL002
  YFP fluorescence quenching using CNL002: 67.81%
100 nM abt
  YFP fluorescence quenching using ABT-126: 57.31%
100 nM azd0328
  YFP fluorescence quenching using AZD-0328: −7.57%
300 nM abt
  YFP fluorescence quenching using ABT-126: 12.61%
300 nM azd0328
  YFP fluorescence quenching using AZD-0328: 7.08%
300 nM brd
  YFP fluorescence quenching using TC-5619/Bradanicline: −6.3%
300 nM fac
  YFP fluorescence quenching using Facinicline: 68.29
300 nM var, first column
  YFP fluorescence quenching using Varenicline: 16.183
300 nM var, second column
  YFP fluorescence quenching using Varenicline: 18.025
500 nM var, first column
  YFP fluorescence quenching using Varenicline: 23.366
500 nM var, second column
  YFP fluorescence quenching using Varenicline: 19.206
1 uM CNL001, first column
  YFP fluorescence quenching using CNL001: 83.444%
1 uM CNL001, second column
  YFP fluorescence quenching using CNL001: 83.905%
1 uM CNL002
  YFP fluorescence quenching using CNL002: 69.42%
1 uM abt
  YFP fluorescence quenching using ABT-126: 66.05%
1 uM tc6987
  YFP fluorescence quenching using TC-6987: −10.35
1 uM var, first column
  YFP fluorescence quenching using Varenicline: 34.69
1 uM var, second column
  YFP fluorescence quenching using Varenicline: 30.504
10 uM tc6987
  YFP fluorescence quenching using TC-6987: −13.93
30 uM CNL002
  YFP fluorescence quenching using CNL002: 73.64%
30 uM azd0328
  YFP fluorescence quenching using AZD-0328: 81.59%
30 uM fac
  YFP fluorescence quenching using Facinicline: 87.35
500 uM tc6987
  YFP fluorescence quenching using TC-6987: −7.54
  percent quench of YFP fluorescence, 10 uM ach: −5.86%
  percent quench of YFP fluorescence, 100 uM ach: 70.06%
  percent quench of YFP fluorescence, 1 mM ach: 68.71%
  percent quench of YFP fluorescence, 3 mM ach: 73.45%

From US20240317834A1, “COMPOSITIONS AND METHODS FOR NEUROLOGICAL DISEASES” (CODA BIOTHERAPEUTICS, INC., priority 2020, published 2024)
